Results taken from patent publication US20090081195A1, “Inhibitors of Ste20-like Kinase (SLK) and Methods of Modulating Cell Cycle Progression and Cell Motility” (OTTAWA HEALTH RESEARCH INSTITUTE, priority 2005, published 2009).

T1: SLK (Mus musculus, UniProt O54988)
T1 construct: made in house; host or cells: bacteria (IPTG-induced; pGEX-5X or 4T1)
T1 sequence (O54988 981-1233): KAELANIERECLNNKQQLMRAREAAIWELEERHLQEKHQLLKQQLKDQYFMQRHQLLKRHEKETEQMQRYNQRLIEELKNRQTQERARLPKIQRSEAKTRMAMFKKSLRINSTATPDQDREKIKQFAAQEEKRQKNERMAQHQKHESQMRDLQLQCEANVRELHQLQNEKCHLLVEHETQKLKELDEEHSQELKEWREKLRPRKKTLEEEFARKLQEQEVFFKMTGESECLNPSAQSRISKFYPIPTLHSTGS

B1: Ldb1: LIM domain binding transcription co-factor; recombinant His-tagged or in vitro translated protein, SLK binding partner (protein)
chain: MLDRDVGPTPMYPPTYLEPGIGRHTPYGNQTDYRIFELNKRLQNWTEECDNLWWDAFTTEFFEDDAMLTITFCLEDGPKRYTIGRTLIPRYFRSIFEGGATELYYVLKHPKEAFHSNFVSLDCDQGSMVTQHGKPMFTQVCVEGRLYLEFMFDDMMRIKTWHFSIRQHRELIPRSILAMHAQDPQMLDQLSKNITRCGLSNSTLNYLRLCVILEPMQELMSRHKTYSLSPRDCLKTCLFQKWQRMVAPPAEPARQQPSKRRKRKMSGGSTMSSGGGNTNNSNSKKKSPASTFALSSQVPDVMVVGEPTLMGGEFGDEDERLITRLENTQFDAANGIDDEDSFNNSPALGANSPWNSKPPSSQESKSENPTSQASQ
modifications: left off: large carriers
B2: Ldb2: LIM domain binding transcription co-factor, paralog of Ldb1; recombinant His-tagged or in vitro translated protein (protein)
chain: MSSTPHDPFYSSPFGPFYRRHTPYMVQPEYRIYEMNKRLQSRTEDSDNLWWDAFATEFFEDDATLTLSFCLEDGPKRYTIGRTLIPRYFSTVFEGGVTDLYYILKHSKESYHNSSITVDCDQCAMVTQHGKPMFTKVCTEGRLILEFTFDDLMRIKTWHFTIRQYRELVPRSILAMHAQDPQVLDQLSKNITRMGLTNFTLNYLRLCVILEPMQELMSRHKTYNLSPRDCLKTCLFQKWQRMVAPPAEPTRQPTTKRRKRKNSTSSTSNSSAGNTTNSAGSKKKTPAASLSLATQVPDVMVVGEPTLMGGEFGDEDERLITRLENTQYDAANGMDDEEDFNNSPALGNNSPWNSKPPATQETKSENAPPQASQ
modifications: left off: large carriers
notes: recombinant His-tagged or in vitro translated protein

Columns and labels:
SLK [1] = target: T1, SLK; experiment: In vitro binding assay, GST-SLK fusions with [35S]-labeled Ldb; set-up: species or system murine; conditions: GST pulldown, autoradiography
Experimental: (§1) GST fusion proteins were generated by induction of bacterial cultures with 1 mM isopropyl-beta-D-thiogalactopyranoside (IPTG, Sigma) for 2 hours. Bacteria were pelleted, resuspended in 1 ml bacterial lysis buffer (20% sucrose, 10% glycerol, 50 mM Tris-HCl pH 8.0, 2 mM MgCl2, 2 mM DTT, 10 μg/ml leupeptin, 10 μg/ml pepstatin, 10 μg/ml aprotinin, 1 mM phenylmethylsulphonylfluoride [PMSF] and 100 μM benzamidine) and sonicated on ice.
(§2) Glutathione sepharose beads (Amersham Pharmacia) were added to the cleared supernatants and bound GST fusions were collected by centrifugation, washed three times with NETN and subjected to binding assays. In vitro translated proteins were generated using the TNT quick coupled in vitro transcription translation kit (Promega) according to the manufacturer's instructions. Translated proteins were incubated with either GST or GST fusions in NETN buffer, washed with NETN and eluted from the beads by boiling in sample buffer. Proteins were fractionated by SDS-PAGE, the gels were stained with Coomassie brilliant blue (Sigma) to visualize the proteins, destained (30% methanol, 10% acetic acid), dried and subjected to autoradiography.

α-tubulin = experiment: GST pulldown binding to α-tubulin; conditions: in vitro
Source text: Co-localization of Rac1 (d), Paxillin (e) and Ldb1 (f) with SLK (a-c) in membrane ruffles of migrating fibroblasts on fibronectin (arrowhead). Note the absence of SLK in mature adhesions identified by Paxillin staining (e; arrow). […] (m) Ldb2 binds α-tubulin.

[2] = target: T2, GST-tagged recombinant SLK (Mus musculus, UniProt O54988); experiment: Recombinant SLK kinase assay on histone H1; format: biochemical, murine; conditions: recombinant His-tagged Ldb added to GST-SLK, substrate histone H1
T2 construct: GST (N); made in house; host or cells: bacteria (IPTG-induced, pGEX vector)
T2 sequence (O54988 1-1202 isoform O54988-2): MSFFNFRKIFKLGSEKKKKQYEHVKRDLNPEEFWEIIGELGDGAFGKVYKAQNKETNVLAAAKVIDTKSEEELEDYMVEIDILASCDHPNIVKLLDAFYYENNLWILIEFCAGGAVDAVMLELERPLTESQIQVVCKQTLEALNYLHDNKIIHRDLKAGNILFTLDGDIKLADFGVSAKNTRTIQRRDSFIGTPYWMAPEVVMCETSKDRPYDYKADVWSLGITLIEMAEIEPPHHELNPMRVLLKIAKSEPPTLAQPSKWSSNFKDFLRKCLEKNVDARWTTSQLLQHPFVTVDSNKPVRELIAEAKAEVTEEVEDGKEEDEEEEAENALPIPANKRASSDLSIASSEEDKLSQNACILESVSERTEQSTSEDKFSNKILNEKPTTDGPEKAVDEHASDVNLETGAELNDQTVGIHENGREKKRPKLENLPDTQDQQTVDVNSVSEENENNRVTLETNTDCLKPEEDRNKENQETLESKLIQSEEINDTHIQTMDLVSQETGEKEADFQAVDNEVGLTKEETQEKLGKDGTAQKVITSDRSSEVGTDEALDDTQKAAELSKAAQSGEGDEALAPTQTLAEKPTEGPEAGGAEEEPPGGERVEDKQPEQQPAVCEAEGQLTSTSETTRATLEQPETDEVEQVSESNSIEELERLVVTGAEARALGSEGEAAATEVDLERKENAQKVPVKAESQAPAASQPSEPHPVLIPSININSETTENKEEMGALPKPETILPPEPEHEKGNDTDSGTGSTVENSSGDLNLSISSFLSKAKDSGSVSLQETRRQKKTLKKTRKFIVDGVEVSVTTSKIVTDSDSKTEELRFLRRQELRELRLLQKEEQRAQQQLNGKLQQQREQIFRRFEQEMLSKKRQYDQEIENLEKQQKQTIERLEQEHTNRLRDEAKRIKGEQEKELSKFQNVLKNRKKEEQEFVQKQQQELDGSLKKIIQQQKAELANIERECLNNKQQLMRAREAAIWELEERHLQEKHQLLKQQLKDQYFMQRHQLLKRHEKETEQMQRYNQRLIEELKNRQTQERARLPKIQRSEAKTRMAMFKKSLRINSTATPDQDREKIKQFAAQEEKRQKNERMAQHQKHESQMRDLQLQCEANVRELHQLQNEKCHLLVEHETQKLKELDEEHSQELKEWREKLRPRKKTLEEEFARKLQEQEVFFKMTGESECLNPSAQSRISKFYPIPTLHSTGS
Source text: (a-left panel) MEFs obtained from floxed-Ldb1 mice were generated and infected with recombinant adenovirus harbouring a GFP or Cre recombinase cDNA. […] (right panel) SLK was immunoprecipitated from lysates obtained from Ad-GFP or Ad-Cre infected cells. SLK precipitation efficiency and kinase activity was consistently greater in lysates from Cre-infected cells. In addition, Ldb2 association with the SLK complex was lost in cells lacking Ldb1 (bottom panel). (b) Ldb2 interacts with SLK kinase domain and ATH. […] (c) Ldb1/2 inhibit SLK kinase activity in vitro. Recombinant GST-tagged SLK was prepared and mixed with recombinant His-tagged Ldb2 (lane 2), His-tagged Ldb1 (lane 3) or both (lane 4) and assayed for kinase activity on histone H1. Addition of recombinant Ldb proteins inhibited SLK activity (d) Activation of SLK by scratch wounding is accompanied by a conformational change. Endogenous SLK complexes were immunoprecipitated from unscratched MEFs or 60 min post-wounding and subjected to trypsin digestion. Differential trypsin sensitivity was observed indicative of altered conformation.
Recombinant SLK was prepared by inducing an overnight culture of GST-SLK with IPTG and preparing GST SLK as described above. […]

SLK [3] = experiment: In vitro binding assay, GST-SLK fusions with [35S]-labeled Ldb; set-up: species or system murine; conditions: deletions lacking the ATH domain, prolonged exposures
Experimental: as §1, §2

SLK [4] = target: T3, SLK (Mus musculus, UniProt O54988); experiment: as above; set-up: species or system murine; conditions: carboxy-terminal deletion lacking the latter two thirds of the ATH domain
T3 construct: made in house; host or cells: bacteria (IPTG-induced; pGEX-5X or 4T1)
Experimental: as §1, §2
T3 sequence (O54988 1-950 isoform O54988-2): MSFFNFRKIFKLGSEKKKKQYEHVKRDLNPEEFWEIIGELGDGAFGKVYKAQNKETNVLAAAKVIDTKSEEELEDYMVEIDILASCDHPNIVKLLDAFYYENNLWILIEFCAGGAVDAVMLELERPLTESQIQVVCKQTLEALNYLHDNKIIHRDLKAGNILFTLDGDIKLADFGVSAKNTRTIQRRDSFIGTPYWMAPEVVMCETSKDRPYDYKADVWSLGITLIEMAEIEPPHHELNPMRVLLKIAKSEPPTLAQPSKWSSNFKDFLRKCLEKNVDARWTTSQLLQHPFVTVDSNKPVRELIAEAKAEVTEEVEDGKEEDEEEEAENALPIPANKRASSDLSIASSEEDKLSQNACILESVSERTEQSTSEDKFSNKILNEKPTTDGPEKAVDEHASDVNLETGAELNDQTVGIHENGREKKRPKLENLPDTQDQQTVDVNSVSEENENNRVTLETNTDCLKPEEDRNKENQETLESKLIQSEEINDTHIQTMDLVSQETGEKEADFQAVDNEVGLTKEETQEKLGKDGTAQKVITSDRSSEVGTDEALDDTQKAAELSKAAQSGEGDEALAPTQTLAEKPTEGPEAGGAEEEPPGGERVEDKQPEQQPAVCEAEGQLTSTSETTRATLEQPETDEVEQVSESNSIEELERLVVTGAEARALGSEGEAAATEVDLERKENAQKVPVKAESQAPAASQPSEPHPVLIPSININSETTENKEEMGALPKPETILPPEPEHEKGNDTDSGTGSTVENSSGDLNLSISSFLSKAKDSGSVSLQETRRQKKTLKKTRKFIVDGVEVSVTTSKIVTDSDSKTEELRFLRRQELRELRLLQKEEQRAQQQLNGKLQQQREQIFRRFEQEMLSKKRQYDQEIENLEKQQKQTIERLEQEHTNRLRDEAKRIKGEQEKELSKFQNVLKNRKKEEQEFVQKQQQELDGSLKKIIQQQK

Molecule	binding to SLK ATH domain (SLK 950-1202) (SLK [1])	binding to α-tubulin (α-tubulin)	SLK kinase activity [2]	binding to GST-SLK-1-551, GST-SLK-1-373 (SLK [3])	binding to SLK 1-950 (SLK [4])
B1	indistinguishable from Ldb2	not	reduced SLK activity	–	–
B2	highest affinity	found to bind α-tubulin in vitro	reduced SLK activity	weak binding	moderate affinity
